Results: patent publication US20260258155A1 (TRIVENI BIO, published 2026)
Numbering of substitutions follows the chain as printed. Blank lines part the entries; values can stand above or below the binder they belong to.

Assays:
[1] = target: T1, human KLK7 (hKLK7), active form (human, UniProt P49862 30-253); assay: Biacore SPR, antibody captured on Protein A chip, single-cycle kinetics, 25 C
T1 construct: mature; also called active human KLK7
Method: (§1) All screening assays were performed at 25 C. The running buffer used was 20 mM HEPES, 300 mM NaCl, 0.01% Tween-20, pH 7.5. Antibodies (1 ug/mL) were captured on Fc2-4 of a Series S ProteinA Sensor Chip (Cytiva) flowing at 10 ul/mL for 30 s. Kinetics measurements were made in single-cycle kinetics mode with a series of 4-5 concentrations with top concentration of 25-100 nM and serial dilution 4-fold. Contact time was typically 300 s and dissociation time ranged from 1800-3600 s. Flow rate of 30 ul/mL was typically used. The sensor chip was regenerated with 10 mM glycine, pH 1.5 with a contact time of 30 s flowing at 50 ul/mL.

mouse KLK7 (mKLK7) [2] = target: T2, mouse KLK7 (mKLK7) (mouse, UniProt Q91VE3 26-249); assay: as above
T2 construct: Enzymatically active in the protease assay
T2 sequence (Q91VE3 26-249 limits assumed): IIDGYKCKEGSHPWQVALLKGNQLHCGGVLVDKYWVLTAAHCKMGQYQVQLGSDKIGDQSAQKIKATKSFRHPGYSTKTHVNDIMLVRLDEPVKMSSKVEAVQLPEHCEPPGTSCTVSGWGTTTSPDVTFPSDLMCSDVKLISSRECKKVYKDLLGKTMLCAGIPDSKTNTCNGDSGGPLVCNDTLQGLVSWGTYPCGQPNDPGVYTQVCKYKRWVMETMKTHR
Method: as §1

[3] = target: T1, human KLK7 (hKLK7), active form; assay: cell-based or functional assay
mouse KLK7 (mKLK7) [4] = target: T2, mouse KLK7 (mKLK7); assay: cell-based or functional assay
mouse KLK5 (mKLK5) [5] = target: T3, mouse KLK5 (mKLK5) (mouse); assay: Biacore SPR, antibody captured on Protein A chip, single-cycle kinetics, 25 C
T3 construct: Enzymatically active in the protease assay
Method: as §1

[6] = target: T4, human KLK5 (hKLK5), active form (human, UniProt Q9Y337 67-293); assay: as above
T4 construct: mature; also called active human KLK5
Method: as §1

mouse KLK5 (mKLK5) [7] = target: T3, mouse KLK5 (mKLK5); assay: cell-based or functional assay
[8] = target: T4, human KLK5 (hKLK5), active form; assay: cell-based or functional assay

T1 sequence (P49862 30-253): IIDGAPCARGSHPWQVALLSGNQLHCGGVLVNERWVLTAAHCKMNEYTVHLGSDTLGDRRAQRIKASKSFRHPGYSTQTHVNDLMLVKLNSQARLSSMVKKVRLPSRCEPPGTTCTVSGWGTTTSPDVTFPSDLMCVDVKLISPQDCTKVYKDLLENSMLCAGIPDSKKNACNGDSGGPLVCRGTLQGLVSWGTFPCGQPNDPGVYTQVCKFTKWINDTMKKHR

Kd [1]: 0.01 nM
Kd (mouse KLK7 (mKLK7) [2]): 0.0569 nM
hKLK7 IC50 (protease inhibition) [3]: 0.767 nM
hKLK7 IC90 (protease inhibition) [3]: 3.95 nM
mKLK7 IC50 (protease inhibition) (mouse KLK7 (mKLK7) [4]): 1.1 nM
mKLK7 IC90 (protease inhibition) (mouse KLK7 (mKLK7) [4]): 5.3 nM
B1: KLK7-L1-Ab8 (antibody, V domains shown)
VH: QVQLVQSGAEVKKPGASVKVSCKASGYTFTSEGIHWVRQAPGQGLEWMGSISASSGDTNYAQKLQGRVTMTTDTSTSTAYMELRSLRSDDTAVYYCARSAGYGARHWYFDLWGQGTMVTVSS
VL: DIQMTQSPSSLSASVGDRVTITCRASQSISSYLNWYQQKPGKAPKLLIYGASSLQSGVPSRFSGSGSGTDFTLTISSLQPEDFATYYCDQWYSTPPITFGGGTKVEIK

Kd (mouse KLK5 (mKLK5) [5]): 4.44 nM
Kd [6]: 0.783 nM
mKLK5 IC50 (protease inhibition) (mouse KLK5 (mKLK5) [7]): 29.4 nM
mKLK5 IC90 (protease inhibition) (mouse KLK5 (mKLK5) [7]): 103 nM
hKLK5 IC50 (protease inhibition) [8]: 3.45 nM
hKLK5 IC90 (protease inhibition) [8]: 83.1 nM
B2: KLK5-L1-Ab1 (antibody, V domains shown)
VH: EVQLVESGGGLVQPGGSLRLSCAASGFTFSSYSMNWVRQAPGKGLEWVSYISSSSSTIYYADSVKGRFTISRDNAKNSLYLQMNSLRAEDTAVYYCARDLTSMQSRDYYYYGMDVWGQGTTVTVSS
VL: DIQMTQSPSSVSASVGDRVTITCRASQGISSWLAWYQQKPGKAPKLLIYAASSLQSGVPSRFSGSGSGTDFTLTISSLQPEDFATYYCQQVPIFPYTFGGGTKVEIK

Kd [1]: 0.0205 nM
Kd (mouse KLK7 (mKLK7) [2]): 9.03 nM
hKLK7 IC50 (protease inhibition) [3]: 0.37 nM
hKLK7 IC90 (protease inhibition) [3]: 10.5 nM
mKLK7 IC50 (protease inhibition) (mouse KLK7 (mKLK7) [4]): 10.9 nM
mKLK7 IC90 (protease inhibition) (mouse KLK7 (mKLK7) [4]): 212 nM
B3: KLK7-L3-Ab1 (antibody, V domains shown)
VH: QVQLVQSGAEVKKPGSSVKVSCKASGGTFSNYAISWVRQAPGQGLEWMGGIIPIFGTANYAQKFQGRVTITADESTSTAYMELSSLRSEDTAVYYCARGAPNYYGSSSSRGIAFDIWGQGTMVTVSS
VL: B2 VL with Q89V, V91A, P92N, I93A

Kd (mouse KLK5 (mKLK5) [5]): 3.8 nM
mKLK5 IC50 (protease inhibition) (mouse KLK5 (mKLK5) [7]): 15 nM
mKLK5 IC90 (protease inhibition) (mouse KLK5 (mKLK5) [7]): 91.3 nM
hKLK5 IC50 (protease inhibition) [8]: 4.45 nM
hKLK5 IC90 (protease inhibition) [8]: 24 nM
B4: KLK5-L3-Ab2 (antibody, V domains shown)
VH: QVQLVQSGAEVKKPGSSVKVSCKASGGTFSGYSISWVRQAPGQGLEWMGLIFPISGTANYAQKFQGRVTITADESTSTAYMELSSLRSEDTAVYYCARGSASGYYDRSYYYYGMDVWGQGTTVTVSS
VL: B2 VL with P92S, I93S

Kd (mouse KLK5 (mKLK5) [5]): 8.8 nM
mKLK5 IC50 (protease inhibition) (mouse KLK5 (mKLK5) [7]): 8.27 nM
mKLK5 IC90 (protease inhibition) (mouse KLK5 (mKLK5) [7]): 83.2 nM
hKLK5 IC50 (protease inhibition) [8]: 1.76 nM
hKLK5 IC90 (protease inhibition) [8]: 9.81 nM
B5: KLK5-L3-Ab4 (antibody, V domains shown)
VH: B4 VH with S30N, G31N, S33H, L50G, F52I, I54P, S55F, N59H, S100E, M114L
VL: B2 VL with P92S, I93S

Kd (mouse KLK5 (mKLK5) [5]): 7.2 nM
mKLK5 IC50 (protease inhibition) (mouse KLK5 (mKLK5) [7]): 14.9 nM
mKLK5 IC90 (protease inhibition) (mouse KLK5 (mKLK5) [7]): 87 nM
hKLK5 IC50 (protease inhibition) [8]: 2.81 nM
hKLK5 IC90 (protease inhibition) [8]: 11.1 nM
B6: KLK5-L3-Ab3 (antibody, V domains shown)
VH: B4 VH with S30N, G31N, S33H, L50G, F52I, I54P, S55F, N59H
VL: B2 VL with P92S, I93S

Kd (mouse KLK5 (mKLK5) [5]): 3.4 nM
mKLK5 IC50 (protease inhibition) (mouse KLK5 (mKLK5) [7]): 4.44 nM
mKLK5 IC90 (protease inhibition) (mouse KLK5 (mKLK5) [7]): 28.4 nM
hKLK5 IC50 (protease inhibition) [8]: 2.58 nM
hKLK5 IC90 (protease inhibition) [8]: 10.6 nM
B7: KLK5-L3-Ab5 (antibody, V domains shown)
VH: B4 VH with G99Q, Y111R
VL: B2 VL with P92S, I93S

Kd (mouse KLK5 (mKLK5) [5]): 16.6 nM
Kd [6]: 2.62 nM
mKLK5 IC50 (protease inhibition) (mouse KLK5 (mKLK5) [7]): 81.3 nM
mKLK5 IC90 (protease inhibition) (mouse KLK5 (mKLK5) [7]): 130 nM
hKLK5 IC50 (protease inhibition) [8]: 12.7 nM
hKLK5 IC90 (protease inhibition) [8]: 112 nM
B8: KLK5-L3-Ab1 (antibody, V domains shown)
VH: B4 VH with S16A, G27Y, S30T, S33Y, I34M, S35H, L50G, F52I
VL: B2 VL with P92S, I93S

Kd (mouse KLK5 (mKLK5) [5]): 20.5 nM
Kd [6]: 2.53 nM
mKLK5 IC50 (protease inhibition) (mouse KLK5 (mKLK5) [7]): 45.9 nM
mKLK5 IC90 (protease inhibition) (mouse KLK5 (mKLK5) [7]): 93.2 nM
hKLK5 IC50 (protease inhibition) [8]: 11 nM
hKLK5 IC90 (protease inhibition) [8]: 92.9 nM
B9: KLK5-L2-Ab1 (antibody, V domains shown)
VH: QLQLQESGPGLVKPSETLSLTCTVSGGSISSSSYYWGWIRQPPGKGLEWIGSISYSGSTYYNPSLKSRVTISVDTSKNQFSLKLSSVTAADTAVYYCARGEYDRSYYYYGMDVWGQGTTVTVSS
VL: not shown

Kd (mouse KLK5 (mKLK5) [5]): 0.44 nM
Kd [6]: 0.003 nM
mKLK5 IC50 (protease inhibition) (mouse KLK5 (mKLK5) [7]): 2.21 nM
mKLK5 IC90 (protease inhibition) (mouse KLK5 (mKLK5) [7]): 13.1 nM
hKLK5 IC50 (protease inhibition) [8]: 1.71 nM
hKLK5 IC90 (protease inhibition) [8]: 8.46 nM
B10: KLK5-L2-Ab2 (antibody, V domains shown)
VH: B9 VH with S30P, G37A, S52N, S54Y, Y106A, Y107L
VL: not shown

Kd [1]: 0.219 nM
Kd (mouse KLK7 (mKLK7) [2]): 6 nM
hKLK7 IC50 (protease inhibition) [3]: 0.52 nM
hKLK7 IC90 (protease inhibition) [3]: 14.9 nM
mKLK7 IC50 (protease inhibition) (mouse KLK7 (mKLK7) [4]): 16.3 nM
mKLK7 IC90 (protease inhibition) (mouse KLK7 (mKLK7) [4]): 118 nM
B11: KLK7-L4-Ab1 (antibody, V domains shown)
VH: QLQLQESGPGLVKPSETLSLTCTVSGGSISSSSYYWGWIRQPPGKGLEWIGSISYSGSTYYNPSLKSRVTISVDTSKNQFSLKLSSVTAADTAVYYCARGAPTYFGAASHYYYYMDVWGKGTTVTVSS
VL: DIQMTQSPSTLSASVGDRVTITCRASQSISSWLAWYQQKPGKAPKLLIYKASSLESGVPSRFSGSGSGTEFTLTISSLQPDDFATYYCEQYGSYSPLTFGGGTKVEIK
